The values that follow come from paper PMC8624084, “Persulfidation of Nitrate Reductase 2 Is Involved in L-Cysteine Desulfhydrase-Regulated Rice Drought Tolerance” (International Journal of Molecular Sciences, 2021).

Holding throughout (type): biochemical, Oryza sativa
Substrate in data set [1]: N[C@@H](CS)C(=O)O
The experiment in a line: purified protein. As to conditions: L-cysteine desulfhydrase (CDes) reaction, method section: 100 mM Tris/HCl pH 8.5, 2.5 mM DTT, 37 °C.

Substrate in data set [2]: CC(=O)OC[C@H](N)C(=O)O
The experiment in a line: OAS-TL activity assay, Lineweaver-Burk. As to conditions: OAS-TL (cysteine synthase) side reaction; co-substrate Na2S.

Substrate in data set [3]: S
Briefly: OAS-TL activity assay, Lineweaver-Burk. As to conditions: OAS-TL (cysteine synthase) side reaction; co-substrate OAS.

B1: OsLCD1 (Oryza sativa Japonica Group) (protein)
chain: MASIPPDDDAAAAAAAGAAENGYGNGKGNGNGPAPRPPPAKRPRSVISAAQIRAEFEHHEAGVARVNNGSFGCCPSSLLDAQARWQRLFIAQPDDFYFHALQPGLRRSRAAVAGLVNAGDVAEVSLVDNATTAAAIVLQHAAWSFAEGRFSRGDAVLMLHYAYGAVKKSIHAYVARAGATVVEVPLPFPVASADAIIAEFRAALDVAKAGGRKVRLAVIDHITSMPSVVIPVKELVAICREEGVDKVFIDAAHSIGQVPVDVRDIGADFYTSNLHKWFFCPPAVAFLHTRKDDPIASQLHHPVVSHEYGNGLPMESGWIGTRDYSAQLVVPESIDFVNRFEGGIEGIRSRNHEKVIEMGKMLAEAWGTFLGTPPELCGSMVMVGLPGCLGVESDDDVMRMRTMLRKDFMVEVPIYYNSRRVEAQEMAKDKNGDAVTGYVRISHQVYNVTEDYEKLRDAVNKLVADGFTSSKLRPSQKQETMA
notes: full length, 482 residues, 55 kDa, N-terminal 6xHis tag (pET-28a(+)), E. coli Rosetta (DE3), Ni-NTA purified
The term Km denotes the concentration of substrate that gives half-maximal velocity. Turning to B1, the Km in data set [1] is listed as 0.15 ± 0.02 mM; in data set [2], 3.76 ± 0.41 mM; in data set [3], 8.13 ± 0.72 mM.
